Article PMC8453022, “A New Subfamily of Glycoside Hydrolase Family 30 with Strict Xylobiohydrolase Function” (Frontiers in Molecular Biosciences, 2021)

T1: AcXbh30A-CD (Acetivibrio clariflavus, UniProt G8LU16)
T1 construct: gene Clocl_1795; GH30 catalytic domain only, secretion leader and C-terminal type I dockerin removed, C-terminal His-tag, pET28 expression, ca. 50 kDa, apparent monomer
T1 sequence (G8LU16 29-455 limits assumed): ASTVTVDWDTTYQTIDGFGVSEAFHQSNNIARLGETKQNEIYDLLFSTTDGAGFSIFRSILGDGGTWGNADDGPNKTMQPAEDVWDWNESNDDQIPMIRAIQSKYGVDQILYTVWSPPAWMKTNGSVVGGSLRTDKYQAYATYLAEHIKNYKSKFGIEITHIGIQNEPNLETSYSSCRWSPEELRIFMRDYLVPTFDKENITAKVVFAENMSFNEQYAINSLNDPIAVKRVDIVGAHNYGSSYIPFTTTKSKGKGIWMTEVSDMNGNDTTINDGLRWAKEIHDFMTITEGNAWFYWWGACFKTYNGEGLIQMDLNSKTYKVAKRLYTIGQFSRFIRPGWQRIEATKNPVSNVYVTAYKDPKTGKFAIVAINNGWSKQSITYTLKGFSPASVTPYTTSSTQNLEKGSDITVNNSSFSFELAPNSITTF

B1: AcXbh30A-CD (Acetivibrio clariflavus DSM 19732) (protein)
chain: T1 sequence (G8LU16 29-455 limits assumed)
notes: GH30 catalytic domain only, secretion leader and C-terminal type I dockerin removed, C-terminal His-tag, pET28 expression, ca. 50 kDa, apparent monomer

What was measured:
[1] = biological target: T1, AcXbh30A-CD; assay: pNP-X2 hydrolysis, non-linear competitive inhibition fit; format: biochemical; details: competitive product inhibition; substrate pNP-X2; 30 mM sodium acetate pH 4.0, 0.02 mg/ml BSA, 65 C; read-out: AcXbh30A pNP-X2 kinetic values^a ^, ^b / 116.4 ± 3.23 μM
Source text: pNP-X2 hydrolysis, non-linear competitive inhibition fit on AcXbh30A-CD

[2] = substrate: O=[N+]([O-])c1ccc(O[C@@H]2OC[C@@H](O[C@@H]3OC[C@@H](O)[C@H](O)[C@H]3O)[C@H](O)[C@H]2O)cc1; assay: purified protein; format: biochemical, Acetivibrio clariflavus; details: 30 mM sodium acetate pH 4.0, 0.02 mg/ml BSA, 65 C, 10 min

Row | Molecule | Ki [1] [µM] | Km [2] [µM] | Vmax [2] [U mg^−1] | kcat [2] [s⁻¹] | kcat/Km [2]
1 | OC1OC[C@@H](O[C@@H]2OC[C@@H](O)[C@H](O)[C@H]2O)[C@H](O)[C@H]1O (some centres unmarked) [X2] | 2400 | – | – | – | –
2 | B1 | – | 116.4 ± 3.23 | 183.1 ± 1.13 | 152.7 | 1,311.6 s^−1 mM^−1
